± gives the uncertainty stated by the source.
B1: Tyrosine-protein kinase BTK, residues 215 to 273; numbered along this chain, Q06187 (parent)
chain: ELKKVVALYDYMPMNANDLQLRKGDEYFILEESNLPWWRARDKNGQEGYIPSNYVTEAE

Variants of: B1
Assay: abundance fitness (aPCA) (normalised: wild type 0, dead -1); higher = more abundant; growth selection in yeast, the domain comes from the species named
Conditions: Homo sapiens

Variant	abundance fitness
Y49W	-0.026 ± 0.047
Y49D	-0.032 ± 0.065
Y49P	-0.374 ± 0.054
Y49C	-0.024 ± 0.053
Y49F	-0.033 ± 0.057
Y49R	0.04 ± 0.036
Y49T	-0.019 ± 0.05
Y49Q	0.064 ± 0.063
Y49E	-0.088 ± 0.057
Y49M	0.023 ± 0.047
Y49K	-0.056 ± 0.063
Y49H	-0.074 ± 0.074
Y49S	-0.046 ± 0.042
Y49L	0.003 ± 0.033
Y49A	-0.037 ± 0.049
Y49V	-0.018 ± 0.038
Y49I	0.001 ± 0.061
A40V	-0.047 ± 0.04
A40N	-0.981 ± 0.14
A40T	-0.456 ± 0.057
A40M	-0.334 ± 0.047
A40H	-0.674 ± 0.14
A40I	-0.266 ± 0.076
A40G	-0.047 ± 0.035

Variant	abundance fitness
A40W	-1.02 ± 0.087
A40Q	-0.758 ± 0.093
A40Y	-0.734 ± 0.086
A40E	-0.965 ± 0.11
A40D	-0.952 ± 0.17
A40P	-1.16 ± 0.14
A40F	-0.892 ± 0.1
A40S	-0.298 ± 0.038
A40K	-1.07 ± 0.18
A40R	-0.825 ± 0.044
A40C	-0.121 ± 0.041
A40L	-0.181 ± 0.034
R39T	-0.111 ± 0.06
R39K	-0.064 ± 0.051
R39A	-0.179 ± 0.043
R39S	-0.089 ± 0.039
R39F	-0.069 ± 0.057
R39H	-0.116 ± 0.11
R39G	-0.36 ± 0.036
R39E	-0.199 ± 0.046
R39Q	-0.031 ± 0.06
R39L	-0.062 ± 0.038
R39P	-0.187 ± 0.073
R39Y	-0.171 ± 0.07

Variant	abundance fitness
R39C	-0.181 ± 0.054
R39V	-0.065 ± 0.033
R39W	-0.042 ± 0.046
P36I	-0.294 ± 0.29
P36Y	-0.148 ± 0.058
P36T	-0.1 ± 0.058
P36L	-0.094 ± 0.058
P36Q	0.002 ± 0.054
P36K	0.011 ± 0.072
P36W	-0.17 ± 0.051
P36V	-0.077 ± 0.055
P36R	-0.029 ± 0.032
P36S	-0.013 ± 0.038
P36N	-0.075 ± 0.071
S52N	-0.026 ± 0.072
S52V	-0.023 ± 0.044
S52M	0.019 ± 0.07
S52P	-0.005 ± 0.055
S52T	-0.058 ± 0.051
S52R	-0.008 ± 0.038
S52G	-0.028 ± 0.036
S52D	-0.232 ± 0.063
S52W	-0.03 ± 0.049
S52I	-0.053 ± 0.066

Variant	abundance fitness
S52Y	-0.226 ± 0.067
S52A	-0.009 ± 0.047
S52K	0.088 ± 0.071
S52Q	-0.032 ± 0.06
S52F	-0.108 ± 0.049
S52E	-0.065 ± 0.066
P51M	-0.123 ± 0.055
P51F	-0.054 ± 0.077
P51T	-0.528 ± 0.067
P51C	-0.126 ± 0.059
P51W	-0.164 ± 0.045
P51S	-0.186 ± 0.043
P51H	-0.04 ± 0.097
P51K	-0.106 ± 0.05
P51L	-0.056 ± 0.041
P51Q	-0.128 ± 0.055
P51E	-0.373 ± 0.047
P51A	-0.216 ± 0.049
P51V	-0.379 ± 0.038
P51D	-0.196 ± 0.13
P51I	-0.581 ± 0.12
P51G	-0.286 ± 0.034
P51R	-0.069 ± 0.033
P51Y	-0.04 ± 0.14

Variant	abundance fitness
P51N	-0.102 ± 0.084
E47H	-0.219 ± 0.07
E47L	-0.163 ± 0.035
E47W	-0.104 ± 0.044
E47I	-0.142 ± 0.072
E47G	-0.451 ± 0.05
E47V	-0.05 ± 0.041
E47D	-0.011 ± 0.08
E47R	-0.244 ± 0.036
E47A	-0.086 ± 0.051
E47F	-0.235 ± 0.055
E47N	-0.115 ± 0.067
E47Q	-0.113 ± 0.059
E47M	-0.156 ± 0.05
E47Y	-0.268 ± 0.057
E47K	-0.107 ± 0.061
E47P	-0.473 ± 0.056
E47T	-0.061 ± 0.042
D42P	-0.936 ± 0.12
D42I	-0.995 ± 0.14
D42F	-0.843 ± 0.076
D42R	-0.673 ± 0.063
D42G	-0.103 ± 0.036
D42M	-0.498 ± 0.055

Variant	abundance fitness
D42E	-0.23 ± 0.044
D42S	-0.07 ± 0.039
D42A	0.017 ± 0.042
D42N	-0.081 ± 0.071
D42K	-0.575 ± 0.085
D42C	-0.119 ± 0.055
D42H	-0.321 ± 0.075
D42L	-0.81 ± 0.052
D42Y	-0.889 ± 0.092
D42T	-0.065 ± 0.05
R41L	-0.072 ± 0.036
R41I	-0.158 ± 0.088
R41N	-0.674 ± 0.12
R41M	-0.003 ± 0.058
R41V	-0.132 ± 0.046
R41T	-0.097 ± 0.04
R41F	-0.142 ± 0.064
R41A	-0.111 ± 0.041
R41S	-0.108 ± 0.039
R41D	-1.08 ± 0.2
R41C	-0.027 ± 0.078
R41P	-0.976 ± 0.12
R41G	-0.317 ± 0.042
R41Q	-0.006 ± 0.057

Variant	abundance fitness
R41Y	-0.234 ± 0.11
R41W	-0.19 ± 0.047
R41E	-0.305 ± 0.069
G48S	-0.862 ± 0.057
G48W	-1.02 ± 0.087
G48V	-0.92 ± 0.063
G48R	-0.827 ± 0.052
G48L	-0.993 ± 0.052
G48Y	-0.968 ± 0.15
G48P	-0.68 ± 0.088
G48A	-0.825 ± 0.073
G48H	-0.856 ± 0.13
G48E	-0.895 ± 0.12
G48I	-1.13 ± 0.18
G48C	-0.793 ± 0.096
G48T	-0.886 ± 0.069
G48D	-0.791 ± 0.11
G48K	-0.8 ± 0.069
G48M	-0.946 ± 0.078
G48N	-0.97 ± 0.17
G48F	-0.725 ± 0.066
G48Q	-0.845 ± 0.075
Y54H	-0.009 ± 0.066
